Patent CN116535503A (KANGYUAN BOCHUANG BIOLOGICAL TECH BEIJING CO LTD, dated 2023)
Values belong to the binder of their own block, whether it stands above or below them.

Experiments:
[1] = molecular target: T1, GDF15-HIS(百普赛斯，CAT#:GD5-H5149) (human, UniProt Q99988 197-308); assay: cell-based or functional assay
T1 sequence (looked up): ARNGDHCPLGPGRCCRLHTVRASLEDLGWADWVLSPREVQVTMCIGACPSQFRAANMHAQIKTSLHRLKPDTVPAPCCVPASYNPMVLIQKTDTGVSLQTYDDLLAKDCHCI

GDF1(R&D，6937-GD-010) = molecular target: T2, GDF1(R&D，6937-GD-010) (UniProt P27539 254-372); assay: ELISA, GDF1 coated at 1 μg/ml, HRP-anti-human IgG
T2 sequence (looked up): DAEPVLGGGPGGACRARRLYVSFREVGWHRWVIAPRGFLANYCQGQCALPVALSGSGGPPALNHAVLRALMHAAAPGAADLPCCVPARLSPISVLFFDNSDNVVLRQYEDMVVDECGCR

GDF3(R&D，5754-G3-010) = molecular target: T3, GDF3(R&D，5754-G3-010) (UniProt Q9NR23 251-364); assay: ELISA, GDF3 coated at 1 μg/ml, HRP-anti-human IgG
T3 sequence (looked up): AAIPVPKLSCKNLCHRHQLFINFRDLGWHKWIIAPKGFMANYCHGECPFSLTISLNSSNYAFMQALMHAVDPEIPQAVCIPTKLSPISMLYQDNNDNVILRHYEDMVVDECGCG

Bottom (fold luciferase activity), HEK293 SRE-LUC2-cRET-GFRAL reporter cells [1]: 1.03
IC50(μg/ml), luciferase in HEK293 SRE-LUC2-cRET-GFRAL reporter cells stimulated with 5 ng/ml GDF15-His [1]: 0.0447 µg/mL
B1: AV380-hIgG1 (antibody)
heavy: not shown
light: DIQMTQSPASLSASVGETVTITCRTSENLHNYLAWYQQKQGKSPQLLVYDAKTLADGVPSRFSGSGSGTQYSLKINSLQPEDFGSYYCQHFWSSPYTFGGGTKLEIKRTVAAPSVFIFPPSDEQLKSGTASVVCLLNNFYPREAKVQWKVDNALQSGNSQESVTEQDSKDSTYSLSSTLTLSKADYEKHKVYACEVTHQGLSSPVTKSFNRGEC

Bottom (fold luciferase activity), HEK293 SRE-LUC2-cRET-GFRAL reporter cells [1]: 1.1
IC50(μg/ml), luciferase in HEK293 SRE-LUC2-cRET-GFRAL reporter cells stimulated with 5 ng/ml GDF15-His [1]: 0.0225 µg/mL
binding result (GDF1(R&D，6937-GD-010)): no binding (tested: 4μg/ml)
binding result (GDF3(R&D，5754-G3-010)): no binding (tested: 4μg/ml)
B2: 53E5(hz) (antibody, human IgG1, kappa, V domains shown)
VH: QVQLQESGPGLVKPSETLSLTCTFSGFSLSTSGMGVGWIRQPPGKGLEWLAHILWDDVKRYNPALKSRLTISKDSSKSQISLKLSSVTAADTAVYYCVQMAWDWFAYWGQGTTVTVSS
VL: DIQMTQSPSSLSASVGDRVTITCKASQNVDTNVAWYQQKPGQSPKALIYSASYRSSGVPSRFSGSGSGTDFTLTISSLQPEDFATYYCQQYHSYPTFGQGTRLEIKR
notes: also called 人源化抗体53E5(hz); 53E5人源化
